This is an account of results in patent CN110305216A (WUXI ZHIKANG HONGYI BIOTECHNOLOGY CO LTD, dated 2019).

For experiment [1], the target named is T1, 人TIM-4 (human, UniProt Q96H15 25-314, limits assumed).
T1 sequence (looked up): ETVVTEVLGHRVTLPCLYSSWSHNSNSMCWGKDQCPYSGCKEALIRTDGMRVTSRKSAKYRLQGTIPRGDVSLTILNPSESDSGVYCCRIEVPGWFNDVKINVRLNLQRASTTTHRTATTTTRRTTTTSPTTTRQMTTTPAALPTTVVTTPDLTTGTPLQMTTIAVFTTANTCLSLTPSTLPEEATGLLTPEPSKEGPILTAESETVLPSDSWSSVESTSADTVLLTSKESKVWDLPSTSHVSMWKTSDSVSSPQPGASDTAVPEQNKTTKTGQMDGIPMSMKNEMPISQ
The experiment can be described thus: ELISA, plate coated with human TIM-4. For orientation: ELISA stands for enzyme-linked immunosorbent assay.

The target in experiment [2] is T2, 人TIM-1 (human, UniProt Q96D42 21-295, limits assumed).
T2 sequence (looked up): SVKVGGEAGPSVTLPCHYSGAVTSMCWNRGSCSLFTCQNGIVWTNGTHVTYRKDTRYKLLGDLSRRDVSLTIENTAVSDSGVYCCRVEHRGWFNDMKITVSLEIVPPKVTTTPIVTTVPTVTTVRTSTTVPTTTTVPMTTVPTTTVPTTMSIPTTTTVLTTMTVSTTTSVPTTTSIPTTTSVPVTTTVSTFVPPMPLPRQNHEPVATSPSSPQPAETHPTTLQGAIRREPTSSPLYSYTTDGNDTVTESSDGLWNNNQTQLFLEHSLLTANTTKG
The experiment can be described thus: ELISA, plate coated with human TIM-1.

B1: W3402-2.131.17-z3 (antibody, V domains shown)
VH: QVQLQESGPGLVKPSETLSLTCTVSGFSLTNYGVGWIRQPPGKGLEWIGIMTSGGSTYYNSALRARVTINRDTSKNQFSLKLSSVTAADTAVYYCTRDGTTVETLFDYWGQGTMVTVSS
VL: DIVMTQTPLSLSVTPGQPASISCRSSQSLSDSAGITYLYWYLQKPGQSPQLLIYLASNLGSGVPDRFSGSGSGTDFTLKISRVEAEDVGVYYCMQGIHVPLTFGQGTKLEIK
notes: Humanized monoclonal antibody with a kappa light chain; also called W3402-z3; 人源化变体W3402-z3
In the case of B1, the binding result in experiment [1] and in experiment [2] was “no binding” throughout.
